Consider two molecules from patent publication US20040052794A1 (published 2004).

In experiment [1] the target is T1, GST-RB18A-N1 (aa 436 to 1566) fusion protein (human, UniProt Q15648 451-1581).
T1 construct: D9 cDNA cloned downstream of the glutathione transferase gene in pGEX4T-3; also called GST-RB18A fusion protein; mutant 1; not shown: GST moiety (glutathione transferase of pGEX4T-3) and the vector linker between GST and RB18A
As to the kind of experiment: GST pull-down, quantification of retained protein. An excerpt:
(§1) GST fusion proteins were produced in E. coli strain BL21 and purified on glutathione Sepharose 4B beads (Pharmacia LKB) as described by the manufacturer. […] After washing, pelleting, and boiling in Laemmli buffer, eluted proteins were resolved on 10% SDS/PAGE and visualized by autoradiography.

Experiment [2] addresses T1, GST-RB18A-N1 (aa 436 to 1566) fusion …. As to the kind of experiment: GST pull-down of 35S-translated product on glutathione Sepharose beads.
Text: as §1

In experiment [3] the target is human wild-type p53 (product of p53-H8 cDNA, plasmid pSP65-p53H8) (human, UniProt P04637 1-393). As to the kind of experiment: cell-based or functional assay.
Sequence of human wild-type p53 (product of p53-H8 cDNA, plasmid pSP65-p53H8) (P04637 whole entry): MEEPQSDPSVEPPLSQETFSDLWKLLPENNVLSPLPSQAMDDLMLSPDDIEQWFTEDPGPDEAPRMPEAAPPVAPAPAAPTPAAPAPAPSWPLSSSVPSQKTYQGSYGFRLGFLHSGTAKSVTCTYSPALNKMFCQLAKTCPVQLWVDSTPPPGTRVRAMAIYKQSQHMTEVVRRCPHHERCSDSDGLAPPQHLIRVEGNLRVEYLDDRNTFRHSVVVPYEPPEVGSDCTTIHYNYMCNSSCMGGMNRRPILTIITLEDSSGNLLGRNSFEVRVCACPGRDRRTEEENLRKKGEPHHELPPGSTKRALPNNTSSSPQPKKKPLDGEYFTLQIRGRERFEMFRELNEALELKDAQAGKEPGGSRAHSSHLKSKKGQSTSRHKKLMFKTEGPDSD

B1: in vitro translated product of D9 cDNA (partial RB18A, aa 436 to 1566) (other)
chain: SVSFQHPVNDSLVCVVMDVQGLTHVSCKLYKGLSDALICTDDFIAKVVQRCMSIPVTMRAIRRKAETIQADTPALSLIAETVEDMVKKNLPPASSPGYGMTTGNNPMSGTTTSTNTFPGGPIATLFNMSMSIKDRHESVGHGEDFSKVSQNPILTSLLQITGNGGSTIGSSPTPPHHTPPPVSSMAGNTKNHPMLMNLLKDNPAQDFSTLYGSSPLERQNSSSGSPRMEICSGSNKTKKKKSSRLPPEKPKHQTEDDFQRELFSMDVDSQNPIFDVNMTADTLDTPHITPAPSQCSTPPTTYPQPVPHPQPSIQRMVRLSSSDSIGPDVTDILSDIAEEASKLPSTSDDCPAIGTPLRDSSSSGHSQSTLFDSDVFQTNNNENPYTDPADLIADAAGSPSSDSPTNHFFHDGVDFNPDLLNSQSQSGFGEEYFDESSQSGDNDDFKGFASQALNTLGVPMLGGDNGETKFKGNNQADTVDFSIISVAGKALAPADLMEHHSGSQGPLLTTGDLGKEKTQKRVKEGNGTSNSTLSGPGLDSKPGKRSRTPSNDGKSKDKPPKRKKADTEGKSPSHSSSNRPFTPPTSTGGSKSPGSAGRSQTPPGVATPPIPKITIQIPKGTVMVGKPSSHSQYTSSGSVSSSGSKSHHSHSSSSSSSASTSGKMKSSKSEGSSSSKLSSSMYSSQGSSGSSQSKNSSQSGGKPGSSPITKHGLSSGSSSTKMKPQGKPSSLMNPSLSKPNISPSHSRPPGGSDKLASPMKPVPGTPPSSKAKSPISSGSGGSHMSGTSSSSGMKSSSGLGSSGSLSQKTPPSSNSCTASSSSFSSSGSSMSSSQNQHGSSKGKSPSRNKKPSLTAVIDKLKHGVVTSGPGGEDPLDGQMGVSTNSSSHPMSSKHNMSGGEFQGKREKSDKDKSKVSTSGSSVDSSKKTSESKNVGSTGVAKIIISKHDGGSPSIKAKVTLQKPGESSGEGLRPQMASSKNYGSPLISGSTPKHERGSPSHSKSPAYTPQNLDSESESGSSIAEKSYQNSPSSDDGIRPLPEYSTEKHKKHKKEKKKVKDKDRDRDRDKDRDKKKSHSIKPESWSKSPISSDQSLSMTSNTILSADRPSRLSPDFMIGEEDDDLMDVALIGN
modifications: 35S-methionine labelled
notes: also called 35S-RB18A protein; in vitro translated D9 protein
Turning to B1, the “molar ratio retained on GST-RB18A” value in experiment [1] is 1 molar ratio. For the same molecule, the “% of input bound” value in experiment [2] is 10 % of input.

B2: carboxy-terminal domain of RB18A expressed in transfected cells (cDNA nucleotides 3935 to 4933) (other)
chain: LGSSGSLSQKTPPSSNSCTASSSSFSSSGSSMSSSQNQHGSSKGKSPSRNKKPSLTAVIDKLKHGVVTSGPGGEDPLDGQMGVSTNSSSHPMSSKHNMSGGEFQGKREKSDKDKSKVSTSGSSVDSSKKTSESKNVGSTGVAKIIISKHDGGSPSIKAKVTLQKPGESSGEGLRPQMASSKNYGSPLISGSTPKHERGSPSHSKSPAYTPQNLDSESESGSSIAEKSYQNSPSSDDGIRPLPEYSTEKHKKHKKEKKKVKDKDRDRDRDKDRDKKKSHSIKPESWSKSPISSDQSLSMTSNTILSADRPSRLSPDFMIGEEDDDLMDVALIGN
B2: in experiment [3], the “activation of the IGF-BP3 promoter (reporter gene in H1299 and K562 cells)” value stood at 13 fold; the “activation of the MDM2 promoter (reporter gene in H1299 and K562 cells)” value was 5 fold; the “activation of the p21Waf1 promoter (reporter gene in H1299 and K562 cells)” value was 10 fold.
